Publication PMC4102244, “Molecular mechanism for Rabex-5 GEF activation by Rabaptin-5” (eLife, 2014)
One block for each molecule: values may come before it.

Experiments:
[1] = target: Rab5-Rabex-5-Rabaptin-5C21 (R3) complex (human) (UniProt P20339); test: SAXS; purified R2, R2Δ, R3 and R3Δ complexes at 5 mg/ml in 20 mM Tris–HCl (pH 8.0), 150 mM NaCl, 293 K
[2] = target: Rabex-5-Rabaptin-5C21 (R2) complex (human) (UniProt Q15276); test: as above
[3] = target: the molecule itself; test: crystal structure; Rabex-5Δ-Rabaptin-5C21_(2) (R2Δ) complex, 3.10 Å; hanging drop, 16°C, 2.0 M NaH2PO4/K2HPO4 (pH 7.0), 0.05% n-octyl-β-D-galactopyranoside

stoichiometry N [1]: 2
Molecule: Rab5-Rabex-5-Rabaptin-5C21 (R3) complex (from UniProt P20339 15-184; Q15276 552-642)

stoichiometry N [2]: 2
Molecule: Rabex-5-Rabaptin-5C21 (R2) complex (from UniProt Q15276 552-642)

B1: Rabaptin-5 C2-1 domain (residues 552–642) (domain or fragment, human, UniProt Q15276 552-642, looked up)
chain: ETRDQVKKLQLMLRQANDQLEKTMKDKQELEDFIKQSSEDSSHQISALVLRAQASEILLEELQQGLSQAKRDVQEQMAVLMQSREQVSEEL
notes: Rabaptin-5, human, C2-1 domain, residues 552-642; In pET-Duet1 a tag is stated only for the Rabex-5 partner; also called Rabaptin-5C21_(2)
binding result [3]: binds
